The target in assay [1] is Human HSP90β (human) (UniProt P08238). Briefly: cryo-EM structure.
For assay [2] the target is unchanged. The assay is described as follows: cryo-EM structure. The source holds these as a separate data set.

Where two headings read alike, the source gives them in different places.

Sequence of Human HSP90β, P08238 3-724 (natural protein; other documents disagree on this pair) (P08238 3-724): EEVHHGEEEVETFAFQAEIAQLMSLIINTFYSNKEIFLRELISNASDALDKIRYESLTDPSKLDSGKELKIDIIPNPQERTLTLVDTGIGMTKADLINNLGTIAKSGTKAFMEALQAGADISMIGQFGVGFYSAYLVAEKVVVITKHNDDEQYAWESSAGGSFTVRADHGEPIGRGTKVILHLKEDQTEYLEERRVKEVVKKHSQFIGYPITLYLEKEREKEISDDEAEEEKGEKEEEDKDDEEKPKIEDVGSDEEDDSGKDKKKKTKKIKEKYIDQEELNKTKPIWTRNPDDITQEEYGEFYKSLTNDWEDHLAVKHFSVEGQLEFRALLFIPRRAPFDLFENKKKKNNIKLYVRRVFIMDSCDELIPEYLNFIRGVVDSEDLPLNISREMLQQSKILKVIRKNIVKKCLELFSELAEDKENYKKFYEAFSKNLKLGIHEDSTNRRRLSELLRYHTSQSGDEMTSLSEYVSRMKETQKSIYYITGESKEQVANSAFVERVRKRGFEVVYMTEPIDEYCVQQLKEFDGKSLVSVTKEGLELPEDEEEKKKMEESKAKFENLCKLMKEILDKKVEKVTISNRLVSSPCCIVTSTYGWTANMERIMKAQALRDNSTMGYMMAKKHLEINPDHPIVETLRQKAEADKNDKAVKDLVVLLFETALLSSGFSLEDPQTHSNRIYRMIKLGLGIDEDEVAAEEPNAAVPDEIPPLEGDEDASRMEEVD

In the case of “Human HSP90β, P08238 3-724 (natural protein; other documents disagree on this pair)”, the stoichiometry N in assay [1] and in assay [2] was 2 each time.

Usually stoichiometry N stands for a count of units in the complex or per binding partner.

The values are drawn from doi:10.1101/2025.10.17.682828.
